# Assay results published in the MegaScale stability set (Tsuboyama et al. 2023).
# B1: EHEE_rd2_0191 (parent)
# chain: TTEYTFTDDEEARRAIEELKKRGLTFRYEKHGTTWRVRVD
# Variants of: B1
# Test: folding stability dG (cDNA display proteolysis); higher = more stable
# Conditions: PBS, room temperature
row,Variant,folding stability dG [kcal/mol]
1,TTEYTFTDDEEARRAIEELKKRGLTFRYEVHGTTWRVRVD [K30V],1.82
2,TTEYTFTDDEEARRAIEELKKRGLTFRYETHGTTWRVRVD [K30T],0.892
3,TTEYTFTDDEEARRAIEELKKRGLTFRYEWHGTTWRVRVD [K30W],0.819
4,TTEYTFTDDEEARRAIEELKKRGLTFRYESHGTTWRVRVD [K30S],0.569
5,TTEYTFTDDEEARRAIEELKKRGLTFRYEYHGTTWRVRVD [K30Y],1.21
6,TTEYTFTDDEEARRAIEELKKRGLTFRYEKHGTTWLVRVD [R36L],2.71
7,TTEYTFTDDEEARRAIEELKKRGLTFRYEKHGTTWMVRVD [R36M],2.08
8,TTEYTFTDDEEARRAIEELKKRGLTFRYEKHGTTWAVRVD [R36A],1.19
9,TTEYTFTDDEEARRAIEELKKRGLTFRYEKHGTTWDVRVD [R36D],0.362
10,TTEYTFTDDEEARRAIEELKKRGLTFRYEKHGTTWNVRVD [R36N],1.43
11,TTEYTFTDDEEARRAIEELKKRGLTFRYEKHGTTWKVRVD [R36K],2.35
12,TTEYTFTDDEEARRAIEELKKRGLTFRYEKHGTTWIVRVD [R36I],3.33
13,TTEYTFTDDEEARRAIEELKKRGLTFRYEKHGTTWYVRVD [R36Y],3.28
14,TTEYTFTDDEEARRAIEELKKRGLTFRYEKHGTTWQVRVD [R36Q],1.54
15,TTEYTFTDDEEARRAIEELKKRGLTFRYEKHGTTWWVRVD [R36W],2.7
16,TTEYTFTDDEEARRAIEELKKRGLTFRYEKHGTTWTVRVD [R36T],2.57
17,TTEYTFTDDEEARRAIEELKKRGLTFRYEKHGTTWFVRVD [R36F],3.02
18,TTEYTFTDDEEARRAIEELKKRGLTFRYEKHGTTWSVRVD [R36S],1.67
19,TTEYTFTDDEEARRAIEELKKRGLTFRYEKHGTTWVVRVD [R36V],3.08
20,TTEYTFTDDEEARRAIEELKKRGLTFRYEKHGTTWEVRVD [R36E],1.34
21,TTEYTFTDDEEARRAIEELKKRGLTFRYEKHGTTWGVRVD [R36G],-0.707
22,TTEYTFTDDEEARRAIEELKKRGLTFRYEKHGTTWCVRVD [R36C],2.39
23,TTEYTFTDDEEARRAIEELKKRGLTFRYEKHGTTWHVRVD [R36H],2.44
24,TTEYTFTDDEEARRAIEELKKRGLTFRYEKHMTTWRVRVD [G32M],0.592
25,TTEYTFTDDEEARRAIEELKKRGLTFRYEKHVTTWRVRVD [G32V],-0.186

row,Variant,folding stability dG [kcal/mol]
1,TTEYTFTDDEEARRAIEELKKRGLTFRYEKHWTTWRVRVD [G32W],-0.3
2,TTEYTFTDDEEARRAIEELKKRGLTFRYEKHKTTWRVRVD [G32K],0.641
3,TTEYTFTDDEEARRAIEELKKRGLTFRYEKHATTWRVRVD [G32A],0.777
4,TTEYTFTDDEEARRAIEELKKRGLTFRYEKHFTTWRVRVD [G32F],0.367
5,TTEYTFTDDEEARRAIEELKKRGLTFRYEKHHTTWRVRVD [G32H],0.696
6,TTEYTFTDDEEARRAIEELKKRGLTFRYEKHDTTWRVRVD [G32D],1.34
7,TTEYTFTDDEEARRAIEELKKRGLTFRYEKHITTWRVRVD [G32I],-0.154
8,TTEYTFTDDEEARRAIEELKKRGLTFRYEKHLTTWRVRVD [G32L],0.796
9,TTEYTFTDDEEARRAIEELKKRGLTFRYEKHYTTWRVRVD [G32Y],0.194
10,TTEYTFTDDEEARRAIEELKKRGLTFRYEKHTTTWRVRVD [G32T],-0.068
11,TTEYTFTDDEEARRAIEELKKRGLTFRYEKHQTTWRVRVD [G32Q],0.889
12,TTEYTFTDDEEARRAIEELKKRGLTFRYEKHRTTWRVRVD [G32R],0.119
13,TTEYTFTDDEEARRAIEELKKRGLTFRYEKHNTTWRVRVD [G32N],1.1
14,TTEYTFTDDEEARRAIEELKKRGLTFRYEKHSTTWRVRVD [G32S],0.389
15,TTEYTFTDDEEARRAIEELKKRGLTFRYEKHETTWRVRVD [G32E],1.35
16,TTEYTFTDDEEARRAIEELKKRGLTFRYEKHGTTTRVRVD [W35T],1.49
17,TTEYTFTDDEEARRAIEELKKRGLTFRYEKHGTTSRVRVD [W35S],0.309
18,TTEYTFTDDEEARRAIEELKKRGLTFRYEKHGTTARVRVD [W35A],-0.575
19,TTEYTFTDDEEARRAIEELKKRGLTFRYEKHGTTHRVRVD [W35H],1.59
20,TTEYTFTDDEEARRAIEELKKRGLTFRYEKHGTTVRVRVD [W35V],1.44
21,TTEYTFTDDEEARRAIEELKKRGLTFRYEKHGTTYRVRVD [W35Y],1.21
22,TTEYTFTDDEEARRAIEELKKRGLTFRYEKHGTTMRVRVD [W35M],0.84
23,TTEYTFTDDEEARRAIEELKKRGLTFRYEKHGTTLRVRVD [W35L],0.943
24,TTEYTFTDDEEARRAIEELKKRGLTFRYEKHGTTRRVRVD [W35R],-0.576
25,TTEYTFTDDEEARRAIEELKKRGLTFRYEKHGTTCRVRVD [W35C],1.77

row,Variant,folding stability dG [kcal/mol]
1,TTEYTFTDDEEARRAIEELKKRGLTFRYEKHGTTIRVRVD [W35I],2.15
2,TTEYTFTDDEEARRAIEELKKRGLTFRYEKHGTTNRVRVD [W35N],-0.839
3,TTEYTFTDDEEARRAIEELKKRGLTFRYEKHGTTFRVRVD [W35F],0.889
4,TTEYTFTDDEEARRAIEELKKRGLTFRYEKHGTTWRVAVD [R38A],1.89
5,TTEYTFTDDEEARRAIEELKKRGLTFRYEKHGTTWRVIVD [R38I],3.6
6,TTEYTFTDDEEARRAIEELKKRGLTFRYEKHGTTWRVKVD [R38K],2.06
7,TTEYTFTDDEEARRAIEELKKRGLTFRYEKHGTTWRVGVD [R38G],0.594
8,TTEYTFTDDEEARRAIEELKKRGLTFRYEKHGTTWRVSVD [R38S],2.49
9,TTEYTFTDDEEARRAIEELKKRGLTFRYEKHGTTWRVMVD [R38M],2.81
10,TTEYTFTDDEEARRAIEELKKRGLTFRYEKHGTTWRVHVD [R38H],2.28
11,TTEYTFTDDEEARRAIEELKKRGLTFRYEKHGTTWRVQVD [R38Q],2.47
12,TTEYTFTDDEEARRAIEELKKRGLTFRYEKHGTTWRVFVD [R38F],3.61
13,TTEYTFTDDEEARRAIEELKKRGLTFRYEKHGTTWRVLVD [R38L],2.95
14,TTEYTFTDDEEARRAIEELKKRGLTFRYEKHGTTWRVEVD [R38E],2.35
15,TTEYTFTDDEEARRAIEELKKRGLTFRYEKHGTTWRVDVD [R38D],1.11
16,TTEYTFTDDEEARRAIEELKKRGLTFRYEKHGTTWRVNVD [R38N],1.71
17,TTEYTFTDDEEARRAIEELKKRGLTFRYEKKGTTWRVRVD [H31K],2.06
18,TTEYTFTDDEEARRAIEELKKRGLTFRYEKNGTTWRVRVD [H31N],2.21
19,TTEYTFTDDEEARRAIEELKKRGLTFRYEKFGTTWRVRVD [H31F],2.15
20,TTEYTFTDDEEARRAIEELKKRGLTFRYEKYGTTWRVRVD [H31Y],2.04
21,TTEYTFTDDEEARRAIEELKKRGLTFRYEKLGTTWRVRVD [H31L],2.29
22,TTEYTFTDDEEARRAIEELKKRGLTFRYEKDGTTWRVRVD [H31D],2.39
23,TTEYTFTDDEEARRAIEELKKRGLTFRYEKRGTTWRVRVD [H31R],1.99
24,TTEYTFTDDEEARRAIEELKKRGLTFRYEKQGTTWRVRVD [H31Q],2.21
25,TTEYTFTDDEEARRAIEELKKRGLTFRYEKSGTTWRVRVD [H31S],2.1

row,Variant,folding stability dG [kcal/mol]
1,TTEYTFTDDEEARRAIEELKKRGLTFRYEKWGTTWRVRVD [H31W],1.89
2,TTEYTFTDDEEARRAIEELKKRGLTFRYEKEGTTWRVRVD [H31E],2.24
3,TTEYTFTDDEEARRAIEELKKRGLTFRYEKGGTTWRVRVD [H31G],0.625
4,TTEYTFTDDEEARRAIEELKKRGLTFRYEKAGTTWRVRVD [H31A],1.75
5,TTEYTFTDDEEARRAIEELKKRGLTFRYEKTGTTWRVRVD [H31T],2.29
6,TTEYTFTDDEEARRAIEELKKRGLTFRYEKIGTTWRVRVD [H31I],2.81
7,TTEYTFTDDEEARRAIEELKKRGLTFRYEKMGTTWRVRVD [H31M],2.18
8,TTEYTFTDDEEARRAIEELKKRGLTFRYEKVGTTWRVRVD [H31V],2.56
9,TTEYTFTDDEEARRAIEELKKRGLTFRYEKHGTLWRVRVD [T34L],2.33
10,TTEYTFTDDEEARRAIEELKKRGLTFRYEKHGTEWRVRVD [T34E],2.07
11,TTEYTFTDDEEARRAIEELKKRGLTFRYEKHGTHWRVRVD [T34H],1.74
12,TTEYTFTDDEEARRAIEELKKRGLTFRYEKHGTIWRVRVD [T34I],2.48
13,TTEYTFTDDEEARRAIEELKKRGLTFRYEKHGTYWRVRVD [T34Y],2.05
14,TTEYTFTDDEEARRAIEELKKRGLTFRYEKHGTMWRVRVD [T34M],2.08
15,TTEYTFTDDEEARRAIEELKKRGLTFRYEKHGTCWRVRVD [T34C],2.51
16,TTEYTFTDDEEARRAIEELKKRGLTFRYEKHGTVWRVRVD [T34V],2.42
17,TTEYTFTDDEEARRAIEELKKRGLTFRYEKHGTNWRVRVD [T34N],1.48
18,TTEYTFTDDEEARRAIEELKKRGLTFRYEKHGTQWRVRVD [T34Q],1.78
19,TTEYTFTDDEEARRAIEELKKRGLTFRYEKHGTSWRVRVD [T34S],1.53
20,TTEYTFTDDEEARRAIEELKKRGLTFRYEKHGTKWRVRVD [T34K],1.48
21,TTEYTFTDDEEARRAIEELKKRGLTFRYEKHGTDWRVRVD [T34D],1.03
22,TTEYTFTDDEEARRAIEELKKRGLTFRYEKHGTWWRVRVD [T34W],1.75
23,TTEYTFTDDEEARRAIEELKKRGLTFRYEKHGTFWRVRVD [T34F],2.15
24,TTEYTFTDDEEARRAIEELKKRGLTFRYEKHGTGWRVRVD [T34G],1.56
25,TTEYTFTDDEEARRAIEELKKRGLTFRYEKHGTAWRVRVD [T34A],1.48

row,Variant,folding stability dG [kcal/mol]
1,TTEYTFTDDEEARRAIEELKKRGLTFRYEKHGTRWRVRVD [T34R],1.54
2,TTEYTFTDDEEARRAIEELKKRGLTFRYEKHGPTWRVRVD [T33P],1.79
3,TTEYTFTDDEEARRAIEELKKRGLTFRYEKHGETWRVRVD [T33E],2.14
4,TTEYTFTDDEEARRAIEELKKRGLTFRYEKHGNTWRVRVD [T33N],2.55
5,TTEYTFTDDEEARRAIEELKKRGLTFRYEKHGWTWRVRVD [T33W],1.13
6,TTEYTFTDDEEARRAIEELKKRGLTFRYEKHGQTWRVRVD [T33Q],2.03
7,TTEYTFTDDEEARRAIEELKKRGLTFRYEKHGATWRVRVD [T33A],1.93
8,TTEYTFTDDEEARRAIEELKKRGLTFRYEKHGMTWRVRVD [T33M],1.9
9,TTEYTFTDDEEARRAIEELKKRGLTFRYEKHGDTWRVRVD [T33D],2.54
10,TTEYTFTDDEEARRAIEELKKRGLTFRYEKHGITWRVRVD [T33I],1.84
11,TTEYTFTDDEEARRAIEELKKRGLTFRYEKHGYTWRVRVD [T33Y],1.7
12,TTEYTFTDDEEARRAIEELKKRGLTFRYEKHGHTWRVRVD [T33H],2.01
13,TTEYTFTDDEEARRAIEELKKRGLTFRYEKHGLTWRVRVD [T33L],1.91
14,TTEYTFTDDEEARRAIEELKKRGLTFRYEKHGKTWRVRVD [T33K],2.01
15,TTEYTFTDDEEARRAIEELKKRGLTFRYEKHGVTWRVRVD [T33V],1.71
16,TTEYTFTDDEEARRAIEELKKRGLTFRYEKHGGTWRVRVD [T33G],2.46
17,TTEYTFTDDEEARRAIEELKKRGLTFRYEKHGSTWRVRVD [T33S],2.19
18,TTEYTFTDDEEARRAIEELKKRGLTFRYEKHGRTWRVRVD [T33R],1.8
19,TTEYTFTDDEEARRAIEELKKRGLTFRYEKHGFTWRVRVD [T33F],1.9
20,TTEYTFTDDEEARRAIEELKKRGLTFRYEKHGTTWRCRVD [V37C],0.419
21,TTEYTFTDDEEARRAIEELKKRGLTFRYEKHGTTWRPRVD [V37P],-0.51
22,TTEYTFTDDEEARRAIEELKKRGLTFRYEKHGTTWRMRVD [V37M],0.361
23,TTEYTFTDDEEARRAIEELKKRGLTFRYEKHGTTWRLRVD [V37L],1.76
24,TTEYTFTDDEEARRAIEELKKRGLTFRYEKHGTTWRIRVD [V37I],2.67
25,TTEYTFTDDEEARRAIEELKKRGLTFRYEKHGTTWRFRVD [V37F],1.88
